Key:
Experiment in all cases: IEDB peptide-MHC binding, purified MHC/competitive/radioactivity; filed as Kd, often an IC50 or EC50 that approximates it; ≥ and ≤ were set here for values at or beyond the usual limits of such assays
HLA-A*33:01 = target: HLA-A*33:01
HLA-A*11:01 = target: HLA-A*11:01
HLA-A*03:01 = target: HLA-A*03:01
HLA-A*68:01 = target: HLA-A*68:01
HLA-A*31:01 = target: HLA-A*31:01
HLA-A*02:06 = target: HLA-A*02:06
HLA-A*02:03 = target: HLA-A*02:03
HLA-A*02:02 = conditions: source organism: Vaccinia virus WR
[1] = source organism: Vaccinia virus WR
[2] = source organism: Mammarenavirus tacaribeense
[3] = source organism: SARS coronavirus Tor2
[4] = source organism: Mammarenavirus guanaritoense

| Sequence | Kd (HLA-A*33:01; [1]) [µM] | Kd (HLA-A*11:01; [1]) [µM] | Kd (HLA-A*03:01; [1]) [µM] | Kd (HLA-A*68:01; [1]) [µM] | Kd (HLA-A*31:01; [1]) [µM] | other results |
| --- | --- | --- | --- | --- | --- | --- |
| PLFDFVNEKY | ≥ 70 | ≥ 69.8 | ≥ 70.1 | ≥ 70.2 | ≥ 26.8 | – |
| PLHIVCSKTV | – | – | – | – | – | Kd (HLA-A*02:06; [1]): ≥ 27 µM; Kd (HLA-A*02:03; [1]): 5.27 µM; Kd (HLA-A*02:02): ≥ 34.5 µM |
| PMSRLFMDEI | – | – | – | – | – | Kd (HLA-A*02:06; [1]): 4.37 µM; Kd (HLA-A*02:03; [1]): 0.726 µM; Kd (HLA-A*02:02): 1.93 µM |
| PTFQLLNMIK | ≥ 70 | 0.0938 | 9.05 | ≥ 10 | 12.5 | – |
| PVETLFGSY | ≥ 77.7 | 2.2 | ≥ 38.9 | ≥ 33.5 | ≥ 62.3 | – |
| QLPKRGVRVR | ≥ 70 | ≥ 47 | ≥ 22.6 | ≥ 20.1 | 5.38 | – |
| QYIHCFRKPH | – | – | – | – | – | Kd (HLA-A*33:01; [2]): 0.14 µM; Kd (HLA-A*11:01; [2]): ≥ 69.7 µM; Kd (HLA-A*03:01; [2]): ≥ 70 µM; Kd (HLA-A*68:01; [2]): ≥ 57.3 µM; Kd (HLA-A*31:01; [2]): 0.386 µM |
| RVYANLGER | – | – | – | – | – | Kd (HLA-A*33:01; [3]): ≥ 45.4 µM; Kd (HLA-A*11:01; [3]): 0.126 µM; Kd (HLA-A*03:01; [3]): 0.0186 µM; Kd (HLA-A*68:01; [3]): 0.601 µM; Kd (HLA-A*31:01; [3]): 0.0063 µM |
| SAQCFKMFYK | – | – | – | – | – | Kd (HLA-A*33:01; [3]): 0.398 µM; Kd (HLA-A*11:01; [3]): 0.00459 µM; Kd (HLA-A*03:01; [3]): 0.0184 µM; Kd (HLA-A*68:01; [3]): 0.0305 µM; Kd (HLA-A*31:01; [3]): 0.0268 µM |
| SFSNTIQSY | ≥ 77.7 | 4.3 | 11.7 | 10.4 | ≥ 77.9 | – |
| SIKDVIHDY | 19.4 | 2.81 | 2.83 | 3.55 | 2.26 | – |
| SIVLHIQLEH | – | – | – | – | – | Kd (HLA-A*33:01; [4]): 8.1 µM; Kd (HLA-A*11:01; [4]): 1.07 µM; Kd (HLA-A*03:01; [4]): 1.46 µM; Kd (HLA-A*68:01; [4]): ≥ 22.1 µM; Kd (HLA-A*31:01; [4]): 11.8 µM |
| SLGLILLKMV | – | – | – | – | – | Kd (HLA-A*02:03; source organism: Dengue virus 4 Philippines/H241/1956): 0.0582 µM |
| SLIGLTARA | – | – | – | – | – | Kd (HLA-A*02:03; source organism: Dengue virus 1 Brazil/97-11/1997): 0.00413 µM |
| SMDVLAEKKY | ≥ 29.3 | ≥ 10 | ≥ 28.5 | 2.64 | 17.1 | – |
| SQIFNIISY | 0.996 | 0.0535 | 0.675 | 0.158 | 0.915 | – |
| SSVQLSNNKY | 10.1 | 0.141 | 4.65 | 0.0657 | 2.87 | – |

| Sequence | Kd (HLA-A*33:01; [1]) [µM] | Kd (HLA-A*11:01; [1]) [µM] | Kd (HLA-A*03:01; [1]) [µM] | Kd (HLA-A*68:01; [1]) [µM] | Kd (HLA-A*31:01; [1]) [µM] | other results |
| --- | --- | --- | --- | --- | --- | --- |
| STCFKLMLK | – | – | – | – | – | Kd (HLA-A*33:01; [3]): 1.45 µM; Kd (HLA-A*11:01; [3]): 0.000553 µM; Kd (HLA-A*03:01; [3]): 0.000808 µM; Kd (HLA-A*68:01; [3]): 0.00165 µM; Kd (HLA-A*31:01; [3]): 0.0265 µM |
| STQSVLCVK | 15.6 | 0.000756 | 0.149 | 0.00314 | 0.115 | – |
| STYSDICSK | 0.988 | 0.000706 | 0.0236 | 0.00206 | 0.0802 | – |
| TIAGGVCYY | ≥ 51 | 0.0947 | 0.11 | 0.605 | 16.2 | – |
| TILDDNLYK | ≥ 77.7 | 0.0148 | 0.39 | 1.18 | ≥ 50.3 | – |
| TIPIGMQFDK | ≥ 70 | 0.00402 | 6.04 | 0.0381 | 17.4 | – |
| TLDTMDDMKK | ≥ 70 | 0.287 | 0.762 | 2.15 | ≥ 30.2 | – |
| TLQGPPGTGK | – | – | – | – | – | Kd (HLA-A*33:01; [3]): 8.19 µM; Kd (HLA-A*11:01; [3]): 0.264 µM; Kd (HLA-A*03:01; [3]): 0.282 µM; Kd (HLA-A*68:01; [3]): 0.225 µM; Kd (HLA-A*31:01; [3]): 3.29 µM |
| TQFNFNGHTY | 16.1 | 0.965 | 0.218 | 0.266 | 4.06 | – |
| TSMMVILPDK | ≥ 23 | 0.0018 | 0.141 | 0.027 | 0.455 | – |
| VFAYVGCYNK | – | – | – | – | – | Kd (HLA-A*33:01; [3]): 0.34 µM; Kd (HLA-A*11:01; [3]): 0.35 µM; Kd (HLA-A*03:01; [3]): 1.53 µM; Kd (HLA-A*68:01; [3]): 0.0653 µM; Kd (HLA-A*31:01; [3]): 0.184 µM |
| VLNRHAITMY | ≥ 70 | 0.966 | 0.0944 | 16.8 | ≥ 70 | – |
| VQYENLKYTV | – | – | – | – | – | Kd (HLA-A*02:06; source organism: Dengue virus 3 Martinique/1243/1999): 0.061 µM |
| WLSMTDEMR | 6.28 | ≥ 46.3 | ≥ 78 | 0.0344 | 1.79 | – |
| YIFPGDKTSY | ≥ 70 | 1.26 | 0.258 | 0.0407 | 18.7 | – |
| YLSTFNMWR | 0.0945 | 0.666 | 0.201 | 0.00342 | 0.0647 | – |
| YVKSPKFSK | – | – | – | – | – | Kd (HLA-A*33:01; [3]): 7.52 µM; Kd (HLA-A*11:01; [3]): 0.259 µM; Kd (HLA-A*03:01; [3]): 6.98 µM; Kd (HLA-A*68:01; [3]): 0.0655 µM; Kd (HLA-A*31:01; [3]): 2.32 µM |

Reference: the Immune Epitope Database (IEDB)
